Key:
[1] = test system: PPARalpha (rat liver nuclear extract);RXRalpha (rat liver nuclear extract) (rat;rat); experiment: EMSA with anti-PPARalpha supershift; conditions: OEA-treated rats; anti-PPARalpha antibody; 10 mM HEPES pH 7.9, 150 mM KCl, 1 mM DTT, 0.2 ug/uL poly(dI-C), 5% glycerol; 15 min on ice then 15 min with probe at room temperature; 8% native PAGE, 0.5x TBE
[2] = test system: PPARalpha (rat liver nuclear extract);RXRalpha (rat liver nuclear extract) (rat;rat); experiment: EMSA; conditions: OEA-treated rats; 10 mM HEPES pH 7.9, 150 mM KCl, 1 mM DTT, 0.2 ug/uL poly(dI-C), 5% glycerol; 15 min on ice then 15 min with probe at room temperature; 8% native PAGE, 0.5x TBE

ACOX-PPRE
binding signal (fold vs vehicle (supershifted complex)) [1]: > 3 | binding signal (fold vs vehicle) [2]: 2

Reference: PMC3961330
